According to US20220133797A1:

Each molecule was assayed against CD19 (UniProt P15391) (assay: cell-based or functional assay).

Molecule | Average MFI Difference (MFI of ON - MFI of OFF) (BFP reporter; no CAR stimulation) [MFI] | Average MFI Difference (MFI of ON - MFI of OFF) (BFP reporter; with CAR stimulation by ALPPL2+ K562) [MFI] | Average Signal To Noise (BFP reporter MFI, CD19+ K562 vs K562; no CAR stimulation) | Average Signal To Noise (BFP reporter MFI, CD19+ K562 vs K562; with CAR stimulation by ALPPL2+ K562)
hingeNotch STS variant with CXCL16 STS (KRRR) (receptor) | 1290 | 1690 | 14.4 | 27.9
hingeNotch STS variant with NRG1 STS (…) (receptor) | 806 | 637 | 9.42 | 25
hingeNotch STS variant with KL STS (KKGRRSYK) (receptor) | 880 | 1570 | 3.72 | 6.53
hingeNotch STS variant with CDH2 STS (…) (receptor) | 1130 | 2830 | 2.26 | 4.24
hingeNotch STS variant with Jag2 STS (…) (receptor) | 1320 | 3320 | 5.09 | 21.4
hingeNotch STS variant with DAG1 STS (RKKRKGK) (receptor) | 2520 | 4640 | 2.82 | 7.4
hingeNotch STS variant with Notch 2 STS (KRKRKH) (receptor) | 1260 | 4190 | 5.24 | 15.5
hingeNotch STS variant with LRP1B STS (…) (receptor) | 1010 | 2560 | 2.32 | 10.3
hingeNotch STS variant with KCNE3 STS (RSRKVDKR) (receptor) | 976 | 1900 | 9.78 | 62.5
hingeNotch STS variant with AGER STS (RRQRR) (receptor) | 1130 | 1790 | 11.9 | 106
hingeNotch STS variant with PTPRF STS (KRKRTH) (receptor) | 1180 | 2570 | 10.5 | 50.8
hingeNotch STS variant with EPCAM STS (…) (receptor) | 864 | 2370 | 1.64 | 2.48
hingeNotch STS variant with CSF1R STS (KYKQKPK) (receptor) | 801 | 1510 | 3.09 | 5.45
hingeNotch STS variant with Notch 4 STS (RRRREH) (receptor) | 1020 | 1480 | 10.3 | 24.1
hingeNotch STS variant with GHR STS (KQQRIK) (receptor) | 141 | -51.5 | 2.22 | 2.67

Target: CD19 (UniProt P15391)
Experiment: cell-based or functional assay
Remark: another data set of the same source

Average MFI Difference (MFI of ON - MFI of OFF) (BFP reporter; no CAR stimulation) [MFI] | Average MFI Difference (MFI of ON - MFI of OFF) (BFP reporter; with CAR stimulation by ALPPL2+ K562) [MFI] | Average Signal To Noise (BFP reporter MFI, CD19+ K562 vs K562; no CAR stimulation) | Average Signal To Noise (BFP reporter MFI, CD19+ K562 vs K562; with CAR stimulation by ALPPL2+ K562) | Molecule
1190 | 1990 | 12.8 | 29.2 | RRKREH (receptor, part only) [hingeNotch STS variant with Notch3 STS (RRKREH)]
1290 | 2270 | 2.97 | 6.31 | RRRSKYSKAK (receptor, part only) [hingeNotch STS variant with EPHA3 STS (…)]
980 | 2030 | 2.41 | 4.78 | HRRCKHRTGK (receptor, part only) [hingeNotch STS variant with IL1R2 STS (…)]
480 | 423 | 1.23 | 1.71 | HPLRKRRKRKKK (receptor, part only) [hingeNotch STS variant with BTC STS (…)]
1260 | 2200 | 8.32 | 15.8 | KTKKQRKQMHNHLR (receptor, part only) [hingeNotch STS variant with NRG2 STS (…)]
